Assay results: patent publication US20230035659A1, “Compositions and Methods for TTR Gene Editing and Treating ATTR Amyloidosis Comprising a Corticosteroid or Use Thereof” (Intellia Therapeutics, Inc., priority 2019, published 2023)
Strand notation (5' to 3'): a small letter for the sugar, then the base; units joined by * are phosphorothioate-linked, units joined directly phosphodiester-linked; [ ] holds rarer units or linkages, { } end groups; capitals alone tell only the bases. m = 2'-O-methyl; r = 2'-OH (RNA)

Columns and labels:
TTR mRNA = TTR mRNA knockdown (quantitative PCR) in primary human hepatocytes treated with LNPs; format: cell-based; conditions: PHH; LNP dose 300 ng mRNA cargo; gRNA:mRNA 1:2; 96 h; biological triplicates; vs untreated control
Protocol: In one experiment, PHH were cultured and treated with LNPs comprising Cas9 mRNA (SEQ ID NO:1) and a gRNA of interest (See FIG. 29, Table 36), as described in Example 4. The LNPs were prepared using the cross-flow procedure described above and purified and concentrated using PD-10 columns and Amicon centrifugal filter units, respectively. The LNPs were formulated with an N:P ratio of 6.0 and contained Lipid A, Cholesterol, DSPC, and PEG2k-DMG in a 50:38:9:2 molar ratio, respectively. The LNPs comprised a gRNA:mRNA ratio of 1:2, and the cells were treated at a dose of 300 ng (with respect to the amount of mRNA cargo delivered).
(§1) Ninety-six (96) hours following LNP treatment (with biological triplicates for each condition), mRNA was purified from PHH cells using the Dynabeads mRNA DIRECT Kit (ThermoFisher Scientific) according to the manufacturer's protocol. Reverse Transcription (RT) was performed with Maxima reverse transcriptase (ThermoFisher Scientific) and a poly-dT primer. The resulting cDNA was purified with Ampure XP Beads (Agencourt). For Quantitative PCR, 2% of the purified cDNA was amplified with Taqman Fast Advanced Mastermix and 3 Taqman probe sets, TTR (Assay ID: Hs00174914_m1), GAPDH (Assay ID: Hs02786624_g1), and PPIB (Assay ID: Hs00168719_m1). The assays were run on the QuantStudio 7 Flex Real Time PCR System according to the manufacturer's instructions (Life Technologies). Relative expression of TTR mRNA was calculated by normalizing to the endogenous controls (GAPDH and PPIB) individually, and then averaged.
The groups in FIG. 29 and Table 36 are identified by the gRNA ID used in each LNP preparation.
In a separate experiment, TTR mRNA knockdown was evaluated following treatment with LNPs comprising G000480, G000486, and G000502. The LNPs were formulated and PHH were cultured and treated with the LNPs, each as described in the experiment above in this Example with the exception that the cells were treated at a dose of 100 ng (with respect to the amount of mRNA cargo delivered).
as §1, with “(single treatment” for “(with biological triplicates”, “the High Capacity cDNA Reverse Transcription Kit” for “Maxima reverse transcriptase”, “according to the manufacturer's instructions.” for “and a poly-dT primer. The resulting cDNA was purified with Ampure XP Beads (Agencourt).”, “the” for “the purified”
The groups in FIG. 30 and Table 37 are identified by the gRNA ID used in each LNP preparation.

TTR = TTR editing dose response (EC50, maximum editing) in primary cyno hepatocytes treated with LNP formulated U-depleted Spy Cas9 mRNA and sgRNAs; format: cell-based, cynomolgus monkey; conditions: LNP formulated U-depleted Spy Cas9 mRNA and human specific sgRNAs
How it was run: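 Primary cyno hepatocytes, 24 h after plating, treated with LNPs (Cas9 mRNA plus sgRNA) preincubated 5 min in medium with 6% cyno serum; 8-point 3-fold doses from 300 ng mRNA. Lysed at 72 h; indel/substitution percentage by amplicon NGS, giving EC50 and maximum editing.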

Row | Molecule | Avg % Knockdown (TTR mRNA) (TTR mRNA) [%] | Max Editing (TTR) [%]
1 | G000490: TTR sgRNA modified sequence, Human, SEQ ID NO: 97; guide sequence of CR003366 (nucleic acid) guide: mA*mA*mA*rUrArGrArCrArCrCrArArArUrCrUrUrArCrGrUrUrUrUrArGrAmGmCmUmAmGmAmAmAmUmAmGmCrArArGrUrUrArArArArUrArArGrGrCrUrArGrUrCrCrGrUrUrArUrCrAmAmCmUmUmGmAmAmAmAmAmGmUmGmGmCmAmCmCmGmAmGmUmCmGmGmUmGmCmU*mU*mU*mU | 78.34 | 90.76
2 | G000493: TTR sgRNA modified sequence, Human, SEQ ID NO: 100; guide sequence of CR003368 (nucleic acid) guide: mA*mA*mG*rUrGrCrCrUrUrCrCrArGrUrArArGrArUrUrGrUrUrUrUrArGrAmGmCmUmAmGmAmAmAmUmAmGmCrArArGrUrUrArArArArUrArArGrGrCrUrArGrUrCrCrGrUrUrArUrCrAmAmCmUmUmGmAmAmAmAmAmGmUmGmGmCmAmCmCmGmAmGmUmCmGmGmUmGmCmU*mU*mU*mU | 87.53 | 61.15
3 | G000500: TTR sgRNA modified sequence, Human, SEQ ID NO: 107; guide sequence of CR003337 (nucleic acid) guide: mC*mC*mA*rGrUrCrCrArGrCrArArGrGrCrArGrArGrGrGrUrUrUrUrArGrAmGmCmUmAmGmAmAmAmUmAmGmCrArArGrUrUrArArArArUrArArGrGrCrUrArGrUrCrCrGrUrUrArUrCrAmAmCmUmUmGmAmAmAmAmAmGmUmGmGmCmAmCmCmGmAmGmUmCmGmGmUmGmCmU*mU*mU*mU | 92.90 | 58.04
4 | G000567: TTR sgRNA modified sequence, Human, SEQ ID NO: 109; guide sequence of CR003352 (nucleic acid) guide: mG*mA*mA*rArGrGrCrUrGrCrUrGrArUrGrArCrArCrCrGrUrUrUrUrArGrAmGmCmUmAmGmAmAmAmUmAmGmCrArArGrUrUrArArArArUrArArGrGrCrUrArGrUrCrCrGrUrUrArUrCrAmAmCmUmUmGmAmAmAmAmAmGmUmGmGmCmAmCmCmGmAmGmUmCmGmGmUmGmCmU*mU*mU*mU | 90.89 | 97.06
5 | G000568: TTR sgRNA modified sequence, Human, SEQ ID NO: 110; guide sequence of CR003391 (nucleic acid) guide: mG*mG*mC*rUrGrUrCrGrUrCrArCrCrArArUrCrCrCrArGrUrUrUrUrArGrAmGmCmUmAmGmAmAmAmUmAmGmCrArArGrUrUrArArArArUrArArGrGrCrUrArGrUrCrCrGrUrUrArUrCrAmAmCmUmUmGmAmAmAmAmAmGmUmGmGmCmAmCmCmGmAmGmUmCmGmGmUmGmCmU*mU*mU*mU | 53.44 | 87.93
6 | G000572: TTR sgRNA modified sequence, Human, SEQ ID NO: 113; guide sequence of CR003385 (nucleic acid) guide: mC*mC*mC*rCrUrArCrUrCrCrUrArUrUrCrCrArCrCrArGrUrUrUrUrArGrAmGmCmUmAmGmAmAmAmUmAmGmCrArArGrUrUrArArArArUrArArGrGrCrUrArGrUrCrCrGrUrUrArUrCrAmAmCmUmUmGmAmAmAmAmAmGmUmGmGmCmAmCmCmGmAmGmUmCmGmGmUmGmCmU*mU*mU*mU | 55.92 | 100.31
7 | G000481: TTR sgRNA modified sequence, Human, SEQ ID NO: 88; guide sequence of CR003345 (nucleic acid, sugars from the 5' end m3 r25 m12 r28 m32, backbone not given here; further chemistry not fully specified) guide: UCUAGAACUUUGACCAUCAGGUUUUAGAGCUAGAAAUAGCAAGUUAAAAUAAGGCUAGUCCGUUAUCAACUUGAAAAAGUGGCACCGAGUCGGUGCUUUU | 91.39 | 95.07
